Reference: patent publication US20220380436A1 (BOARD OF TRUSTEES OF THE UNIVERSITY OF ILLINOIS, published 2022)

Target: T1, human PDGFRβ isoform 1, myc-tagged, expressed on Expi293F cells (human, UniProt P09619 33-1106)
T1 construct: not shown: N-terminal myc-tag and linker
Test: flow cytometry, gH/gL/gO-sfGFP medium on Expi293F cells expressing PDGFRβ (negative control)

T1 sequence (P09619 33-1106): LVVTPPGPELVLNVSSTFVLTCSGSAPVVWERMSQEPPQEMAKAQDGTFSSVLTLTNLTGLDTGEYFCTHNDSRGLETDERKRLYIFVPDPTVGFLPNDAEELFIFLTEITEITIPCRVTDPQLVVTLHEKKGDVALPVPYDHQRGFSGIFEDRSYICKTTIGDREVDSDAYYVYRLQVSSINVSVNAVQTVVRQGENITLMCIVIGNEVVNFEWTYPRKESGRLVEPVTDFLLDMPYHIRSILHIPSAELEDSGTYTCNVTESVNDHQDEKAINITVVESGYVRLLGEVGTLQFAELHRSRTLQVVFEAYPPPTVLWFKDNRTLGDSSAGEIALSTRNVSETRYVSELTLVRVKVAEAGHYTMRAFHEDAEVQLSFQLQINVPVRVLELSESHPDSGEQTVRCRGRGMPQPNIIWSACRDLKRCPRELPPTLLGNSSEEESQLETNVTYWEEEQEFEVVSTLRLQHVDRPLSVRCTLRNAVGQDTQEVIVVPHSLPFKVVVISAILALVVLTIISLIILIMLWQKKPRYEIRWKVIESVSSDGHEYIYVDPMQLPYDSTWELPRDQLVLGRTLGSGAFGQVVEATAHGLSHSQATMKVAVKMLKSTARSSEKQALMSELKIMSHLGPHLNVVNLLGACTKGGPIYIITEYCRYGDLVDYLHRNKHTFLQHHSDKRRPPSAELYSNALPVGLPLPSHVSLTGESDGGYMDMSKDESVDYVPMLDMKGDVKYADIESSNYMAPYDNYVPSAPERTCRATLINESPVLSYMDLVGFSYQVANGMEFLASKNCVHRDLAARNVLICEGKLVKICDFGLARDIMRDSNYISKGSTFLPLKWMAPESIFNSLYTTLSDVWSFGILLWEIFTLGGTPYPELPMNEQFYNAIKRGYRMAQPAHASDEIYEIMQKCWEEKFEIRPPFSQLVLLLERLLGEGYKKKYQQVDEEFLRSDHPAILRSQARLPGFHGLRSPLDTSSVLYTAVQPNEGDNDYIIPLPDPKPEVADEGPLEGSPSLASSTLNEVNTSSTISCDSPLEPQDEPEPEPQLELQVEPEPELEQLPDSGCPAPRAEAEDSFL

B1: soluble HCMV glycoprotein trimer gH/gL/gO-sfGFP from strain TB40/E (other)
chain 1: […]
chain 2: VAVSVAPTAAEKVPAECPELTRRCLLGEVFQGDKYESWLRPLVNVTGRNGPLSQLIRYRPVTPEAANSVLLDDAFLDTLALLYNNPDQLRALLTLLSSDTAPRWMTVMRGYSECGDGSPAVYTCVDDLCRGYDLTRLSYGRSIFTEHVLGFELVPPSLFNVVVAIRNEATRTNRAVRLPVSTAAAPEGITLFYGLYNAVKEFCLRHQLDPPLLRHLDKYYAGLPPELKQTRVNLPAHSRYGPQAVDAR
chain 3: […]
notes: also called TB40/E trimer; CMV trimer; not shown: C-terminal FLAG tag; C-terminal superfolder GFP (Pedelacq et al. 2006)
binding result: no binding
